Experiment: soluble fraction after stress (log2 fold change); higher = more stays soluble; pooled small domains, quantitative proteomics
Details: stress: 50 degC
Outline: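 After stress at 50°C, the amount of each protein still soluble was measured. This was done on pooled custom libraries of small protein domains, using high-throughput quantitative proteomics. The figure given is a base-two log fold change and stands for aggregation propensity, with higher values meaning more protein stays in solution.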

Sequence | soluble fraction (log2)
HMKIELTDQQKSLVVDEWNKGEANPPSLLQLIRLAYPDQPHLDGRSKEGKAVKAFLATRDINPLA | 0.0239
HMKIETVENPLLERTEISALFDSKSGSLTRKEAIDLISKKARIDSSTVYAIKLSNSSGSTRIIGLFY | 0.0692
HMKIIDDIQEFAGVTKTQNTFFHIFNHLHQNGKQLILTSDRAPVMLQGMEERLLTRFKWGLVAELE | 0.257
HMKIKKIWFDGDYIYGMDERNNTYRQSLLWYSKLRNASAEERERYTFSTIGIHWRELDEDVSFESF | -3.14
HMKIKLQATEQQRKTLDELYVQLKKLEPTSKEDLSLLYRLENPHLVSKQEAQGLISIAIGRVGSLAIEQQ | -0.27
HMKINKQHLAFQIFGIRAKLGLSMEQFGELLGANKSSVSGWERGTVVPSSQRLKKIAELGKISLAELLTP | -1.23
HMKINVQETEVYRYLLERADRLYSMILGEERENLMERTRFFEKEVAKASLPHLPKLYDEFSIYLDRLERG | -0.138
HMKIPYGELIKLLNAAAPKLQDAQGWMDMEAAGQFIGSRWSYLDYGFKDWPDSFKTVHGLEIQGQRMRLA | -0.452
HMKIQISGSQRIDENVVVKVAGLSFPQSLLSLEPGQIESKLMQELPVQEVSVQRRLLPPGLDIQLVE | 0.0631
HMKIQTYEDFRNAYPDIQGSLFGSAERYKTDLDWGDVAAKYDADEELKNVRNIFQLVRRYEQKYS | 0.332
HMKISIPQEYFEIYNVLKQRPMHINEISKILKKPVSEISGTISLMEIEGYITKLTTDQYVLKKI | -0.143
HMKITADQEIETAINYFKKSIAEKGWKGVNPDEFKQMNDYLSETFGYSATIKFQKALDEQGLMVDE | 0.0602
HMKITININIETLSHHIKQSGVPLGRLQESVPDYNEIVTGNKSPTYQQLEKISKLIRVPLGLLVIESPL | 0.268
HMKITLAESVYERIRRDIITNQLKPGEKINIRELSTRYEASETPIRLALNRLASENIIEHFPRQGMRVK | -0.371
HMKIVPEPGTVLIREYQEERHEVTVTLDGAFDYKGTLYSSLSEIARLITGTRWSGPVFFGLRS | -0.4
HMKIYDQVVDRIKDRISKGDMPQGSALPPERQLIDELNVSRSSLREGFRILEMMGLIESIPGKGRFVRTSR | -0.235
HMKKAIYPGSFDPLTLGHIDIIKRASGIVDELVVGVLNNSAKNSLFSLDERVSMIEEMTKDLPNVSVTSFD | 0.136
HMKKEDFLEILRDYLKKGFSEDEVMDILRDYEEYFVDGIIEGKSEIEIIQSLGSPKEIANELLAES | -0.202
HMKKEQVIVPNVVGDTYDVALRKLTDAKLKVGETFPADREGHQGVIEKQSPAAGETVDEDTPVALFFKV | 0.0344
HMKKERITWDERLERFAKYITENESLPYPSSKEHAWFEENKALYDAGELESVRAQSFSFLLKILRRMNLI | -0.278
HMKKGATVSGVIVEKTKKSLIIDLGAKTEGVVADKEFEFAIDFVKELKKGDEVKAIVISTDNDKGQVVLSL | -0.155
HMKKHALFTLFKHHNANGTTVWYARFWDDATQRYAIARSTGVLAQGKRERHDEAITVAREMASSIQFS | -2.6
HMKKHAPSLMRQIRRELKEGKSPESLLSKAKLISDSYYRSLSFYLLIPYLSPNSKQFQEAISLAGKDID | 0.255

Sequence | soluble fraction (log2)
HMKKKSYIVSFATDEDAQRFAREGFEVISLSGRQITVSLKGEMMPLVKALGSYQVVGLETVA | -0.19
HMKKLPDDANDIIERVSSRLAQKFRFGYHTIDDMKQQAALFAWEGIYDSWDDSRPLENFLWIHVRNRLYN | -0.00948
HMKKLTGVQKAAILMIALGPDISSSIIKRLPENMVERITYEIANMTKITAQQRNDILKEFMDMTVAQ | -1.02
HMKKNTEALDYYKKAGANFPEDEVISSEYLFRAAQLQEVLGKTDEAVAIYKDIKAKYPTTEIGLNVDKFIL | -0.0868
HMKKQLKSEAVADELRRKILSGGFPDKRLPRKDELTEYFQVSQKTVEAALKMLTAEGLIRGVKGTGIFVNG | -0.0396
HMKKQLTISDGDWAGKVSSMLEDMGVINSASEFDKYLSDNGYSNVIKSGTYDVSPEDTFQELAEKIT | 0.414
HMKKRDAEIMLQREFKLTEAIAMVRDRDIQELLPIALYFKVNINQPTAEIRYNLLNIAKSKTQEFIEAFD | -1.96
HMKKRDANSQGTRLILFYMLQRLHTEYKLQGFVTYNQRRSFREIYDAYHALGGNGFGTAMWEEVKELDLK | -1.43
HMKKTAAKVLGESEGKPVTVQSGRYGPYVQLGSIRATLPKDLEQDDVTLDRALELISAKAERAGK | 0.122
HMKKTDFNVENYDIEELAAILNFKYVPLNQGLIRDRIKDMKQRFKNKPEYIKFFTDVEIKLVNNLNLFN | -1.24
HMKKTFSKSSVMEAIFRDIPNITIPNAHEVYTLIKNISVMNKRKSITSEDIEKAYDALGLTP | -0.865
HMKKTPLSELTNRAVELFIETVFMERNYSVSSQRQFISALKIFTVFYPQTKIHNLSLERLQSSFDKLLN | -0.452
HMKKTTEFAVTPEFQQRLEASPELKAAFQALTPGRQRAHLLFFAAPKQAQTRQARIEKSLPQIMAGKGLN | -0.184
HMKKTVTDSVELLTFLKDIFTNTSTNKLRKMLTTGRVTVNNIVIHKAKHILVQNDVVEIGDK | -1.86
HMKKVIEFKDVSFAFEKKPILQDFNLLVQNKDRIGIVGDNGVGKSTLLNLIAERLQPQSGQVII | 0.00568
HMKKVSVKPILELRAAGISMRKIETLMHVSRHTISAIYKAADAYSISWDNVKDFDEDKIYEMLFPPTP | -1.94
HMKKYEIIFNDLKQSIVNGKYSNEERLPPEETLAKKYQTSRVPVQQALNALVGIGMVKRIAGSGTYVTY | -0.628
HMKKYFPPKSRFNPNKYLLKDWMALGLSEKQSQSILNFIQRGIYSNSALEKIYVMPEEVFTLIKDSTYYEE | -1.34
HMKKYIEIYNYYKQLIESEQLKSGDKMPSVRKATKIFNVSKTTVQNAYFDLQADGYIIAAPKSGYYVTEM | -0.295
HMKKYLNIYNIIVNKIESKEYQSNDKLPSEKELMDQYNVSRDTVRKSLNMLEQNGYIQKTKGKGSFVLDIN | -0.634
HMKLEEITIIVPSLRLDNFVSDLARTSRSKAVQIIDSERVFINGQNETKASKQVKLGDVITSA | -0.277
HMKLHPRDQERTRAISARGERLYAVTVGDLRRRIGEMLEWFGRQIESQEPMRVAKAARRITDFFDQVEAFT | -2.06
HMKLIRLGKAAGELNVGMSTLAEFLQSKGHSVDPNPNTKLTPEQYALLRMEFAADQTLKKLTKQP | 0.198

Sequence | soluble fraction (log2)
HMKLKHANGNHPLTQQEKQNMIEEAAKHYGDYMTALGFDWKQDPNSSDTPMRVAKAFVNDLAEGVY | 0.0454
HMKLLLSANISKLRKKYSMTQEQLAEALGVTFASVSKWERGVATPELKLIAEMADMFEVSIDALIGYEFRN | -1.39
HMKLPIEKESYRIIWDLEEESFRIRLKISENSPQEEKNILINQAIEDIENITGEPIDKSPYYVLYE | 0.0672
HMKLPNSFGSIQKLSGNRRKPYRVVKTIGWDENGKQIRKTLGYYETRAKALQELALFNEKPYD | -0.804
HMKLTALWTANPKISAPIYSEPSTQSKTLGRIYQGASVKVYSFDPEWAYINSSGVVGYVLRRHLE | -0.323
HMKLTINIDAAHDGKTIKQLFAEKGYSLELIKKFKYDGAIEVNGERKTVRWVLREGDLLVLEAN | -1.25
HMKLTNIQYETLKVVVESRAKIDEEEGITIKLEDIKKYIDQAISFTGLVGDDEDYKKLFADMEYRFKIQ | -2.38
HMKLVAAGYHQNRLLVLLGIQAEELQAKRLLASFDRFRGREATPKPPIHDSARRWLRDTYHHVMNQVPVEL | -1.07
HMKMHKIIKERRLALNFTQEQVAKYLGVTTPAVNKWEKGISYPDISLLPALARLLDTDLNTLLSF | -2.1
HMKMLPAEVLTHPAVVALIERGAPTGSITPEEVRQASEDAAVEPRHLKALLAHLSALGISVQIP | -0.217
HMKMLSIQRREAIRALLLEKESITIAEVMEKFQISVETARRDFDALADEGFLNKVYGGATLKK | -1.37
HMKMPNGYGSITKLSGKRRKPWRVRKTAGWELDAKTQKLKQTYINIGYYETRADAMSALVSYNEDP | -0.898
HMKMQPVISQGVLYINNVTDVRTIEVFDISGRIVADAAASTTVNIAHLNEGPYIVKVTTVNGIESIKILNK | -0.223
HMKNAMTDIYLEEIKKILTKNEFLVYTLRELNNFSVQFITDNYDLSEKTIYNSVYRAKKKIDRHFT | -0.0693
HMKNDKLLIFMELKGISRTQLSKSTGIPASTLGRIINGDVQKIKAVYMEAIANALDTSIHTIFDV | -1.27
HMKNDNIHMMASKINGIALEVGVLTPGMHPKNDLSEGEVGYIVTNLKTTREAKVGDTVTLAKKPAATPLPG | 0.254
HMKNETFAITSEDAGKRLDVWLTNILGDYSRSYVERLVEQGNVTVGGKTVKAGYKLKAGDSVQVSIPGPK | 0.138
HMKNISSEEDREKALSLGITQEFIDNKGRYFITVPNKPSNFKEQALNIQKEISEQIDTVINKRFEF | -0.0173
HMKNLDILTPKEIEVLNLVAKGYSNSKISKELDIAEVTVKKHIGSMFQKLDVKDRLSLALIL | -0.118
HMKNLKPSTEVILKELVKRYPDQTEFRKQQIVDVGQSFGYKGKDYGPIFDADNRVKIGTYDLAGLIVPLQR | -0.0461
HMKNLNVIDLSALRTLELKESSDWTLIQKRFKLLVKKYHPDMNAGSKQYEEKLKKITLAYTHLKKLF | -2.42
HMKNQQLFNIGDRFQVDGVAYRMEKLFPENGTVEVYNLGVGRHKTMSFEEILALWNSGKLLFEI | -0.185

Source: the domain aggregation screens of Martell et al. (2025)
